Measured values reported in publication PMC9029856, “Impact of Different [Tc(N)PNP]-Scaffolds on the Biological Properties of the Small cRGDfK Peptide: Synthesis, In Vitro and In Vivo Evaluations” (Molecules, 2022).

Assays:
[1] = tested on: human melanoma M21 (αvβ3 positive) cells; test: Cell uptake and internalization in M21 cells; assay type: cell-based; details: for cell uptake (sum of surface bound and internalized radioactivity), blocked: M21 blocked by an excess of cold cRGDfK; for cell uptake (sum of surface bound and internalized radioactivity), blocked / cell uptake (sum of surface bound and internalized radioactivity): 37 °C, 90 min; for cell uptake (sum of surface bound and internalized radioactivity): M21 unblocked; for specific/nonspecific ratio, internalized radioactivity only: melanoma cell lines
Procedure: Cell uptake and internalization studies were performed on receptor-positive human melanoma M21 (expressing high levels of αvβ3 integrin and moderate level of integrin αvβ5), human breast cancer MCF7 (exclusively expressing αvβ5), and receptor-negative human melanoma M21L cell lines. The expression of αvβ3 and αvβ5 by cells was already evaluated by flow cytometry (Table 2). The stability of each radiolabeled peptide in the culture media before and after cell exposure was assessed.
Experiments were conducted in suspension at 37 °C. The working conditions were set up to avoid cell damage and/or death. With the use of these information, the cells were pre-incubated in sterile glass tubes at 37 °C for 10 min, in the presence or not of cRGDfK pentapeptide (50 µL; 1.65 mM).
Then, 1 mL of the cell suspension (1 × 10^6 cells/mL) was incubated with intermittent agitation with 10 µL (10 µCi) of ^99mTc1–3. At 90 min, the cells were moved in Eppendorf microcentrifuge tubes (1.5 mL) and the incubation was interrupted by centrifugation (3000 rpm for 5 min at 10 °C). The supernatant (S1) was separated from the pellet. The cell pellet was treated 10 min at room temperature with saline acetate buffer (CH3COOH 0.2M/NaCl 0.5 M) to remove the membrane-bound compound. After centrifugation (3000 rpm for 10 min at 10 °C), the supernatant (S2) was separated from the pellet (P1), and each fraction was collected, placed in a separated counting tube, and the activity was measured using a NaI counter (Cobra II, Packard) to estimate both the cell uptake and the internalized fraction.
The uptake of complexes was expressed as percentage cell uptake of the total activity on 10^6 cells (% cell uptake/10^6 cells).
All assessments were conducted in triplicate for three experiments.

[2] = assay type: physicochemical
Procedure: To explore the impact of the PNP ligand on the lipophilicity of the complexes, Log Ps in a mixture of n-octanol and PBS were determined. The lipophilicity decreased in the order ^99mTc1 > ^99mTc2 > ^99mTc3. The lipophilic character of each compound correlated well with the corresponding HPLC retention time and protein binding behavior.
Determination of log P values. n-Octanol/PBS partition coefficients were determined by vortex mixing (20 min) 3.0 mL of n-octanol, 3.0 mL of PBS and 100 µL of the radiolabeled compound purified as above. After centrifugation (3000 g for 10 min), aliquots (100 µL) of both the organic and the aqueous phases were collected and counted with a γ-counter.

[3] = parameters: species or system Sprague Dawley rats; details: rat, in vivo
Procedure: As expected, MRT values of liver and kidneys were much higher than the dose of stomach, spleen, lung, and heart.
The time–activity curves of the main organs were obtained using the biodistribution data (%IA/organ) as input for the CoKiMo spreadsheet software. Then, the organ mean residence times (MRT) were computed by integration of the organ activity curves, extrapolated until 5 half-lives of Tc-99m (30 h) and corrected for its physical decay, to evaluate the pharmacokinetic profile of each radiolabeled peptide.

[4] = Cysteine (Cys) and Glutathione (GSH) challenge; assay type: physicochemical; details: 37 °C, pH 7.4, 24 h; for % RCP in challenge with L-cysteine: excess free L-cysteine (10 mM); for % RCP in challenge with GSH: excess glutathione
Procedure: The inertness of the radioconjugates under conditions relevant for in vivo applications were assessed by evaluating the stability of ^99mTc1–3 in solution and after incubation (37 °C) with transchelating agents (glutathione and L-cysteine, 10–1 mM, pH 7.4).
Cysteine (Cys) and Glutathione (GSH) Challenge. Challenge experiments were carried out with the purified complex using an excess of Cys or GSH. An aliquot (50 µL) of an aqueous stock solution of cysteine hydrochloride (10 mM or 2 mM) was added to a propylene test tube containing PBS (400 µL, pH 7.4) and the relevant [^99mTc(N)(H2NS-cRGDfK)(PNP)]^+ complex (50 µL). The mixture was vortexed and incubated at 37 °C for 24 h. A control reaction containing an equal volume of water, instead of cysteine hydrochloride, was studied in parallel. At 0.5, 1, 3, and 24 h, aliquots of the reaction mixture were withdrawn and analyzed by HPLC chromatography. A similar procedure was applied using GSH (50 µL, 10 mM) as challenger.

Substance | cell uptake (sum of surface bound and internalized radioactivity), blocked [1] [% cell uptake/10^6 cells] | cell uptake (sum of surface bound and internalized radioactivity) [1] [% cell uptake/10^6 cells] | specific/nonspecific ratio, internalized radioactivity only [1] | Log P [2] | MRT Blood [3] [min] | MRT Heart [3] [min] | MRT Kidney [3] [min] | MRT Liver [3] [min] | MRT Lung [3] [min] | MRT Spleen [3] [min] | MRT Stomach [3] [min] | % RCP in challenge with L-cysteine [4] [%] | % RCP in challenge with GSH [4] [%]
[Tc(N)(H2NS-cRGDfK)(PNP43)]^+ [^99mTc2] | 1.48 ± 0.12 | 2.57 ± 0.42 | 3.28 | −1.95 | 16.9 | 0.4 | 30.7 | 25.9 | 1.6 | 0.8 | 2.1 | > 95 | > 95
[Tc(N)(H2NS-cRGDfK)(PNP3OH)]^+ [^99mTc3] | 1.41 ± 0.25 | 2.60 ± 0.36 | 4.29 | −2.39 | 14.5 | 0.4 | 36.7 | 26.7 | 1.6 | 0.8 | 2.1 | 27.31 ± 3.6 | 73.33 ± 2.8
[Tc(N)(H2NS-cRGDfK)(PNP3)]^+ [^99mTc1] | 2.15 ± 0.17 | 2.88 ± 0.09 | 4.5 | −1.72 ^1 | 14.7 | 0.3 | 9.2 | 30.5 | 0.9 | 1.2 | 1.5 | > 95 | > 95
